Test results reported in paper PMC2794717.

Molecular target: yeast SCF^Cdc4 ubiquitin ligase (yeast) (UniProt P52286)
UniProt P52286, sequence (P52286 whole entry, chain 1 of 4): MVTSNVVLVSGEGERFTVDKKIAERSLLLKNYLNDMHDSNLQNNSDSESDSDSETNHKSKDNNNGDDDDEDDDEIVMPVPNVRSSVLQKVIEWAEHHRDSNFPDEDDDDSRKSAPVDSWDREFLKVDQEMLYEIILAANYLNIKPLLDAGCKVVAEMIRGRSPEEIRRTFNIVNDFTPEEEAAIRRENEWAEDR
UniProt P52286, sequence (Q12018 whole entry, chain 2 of 4, further chain): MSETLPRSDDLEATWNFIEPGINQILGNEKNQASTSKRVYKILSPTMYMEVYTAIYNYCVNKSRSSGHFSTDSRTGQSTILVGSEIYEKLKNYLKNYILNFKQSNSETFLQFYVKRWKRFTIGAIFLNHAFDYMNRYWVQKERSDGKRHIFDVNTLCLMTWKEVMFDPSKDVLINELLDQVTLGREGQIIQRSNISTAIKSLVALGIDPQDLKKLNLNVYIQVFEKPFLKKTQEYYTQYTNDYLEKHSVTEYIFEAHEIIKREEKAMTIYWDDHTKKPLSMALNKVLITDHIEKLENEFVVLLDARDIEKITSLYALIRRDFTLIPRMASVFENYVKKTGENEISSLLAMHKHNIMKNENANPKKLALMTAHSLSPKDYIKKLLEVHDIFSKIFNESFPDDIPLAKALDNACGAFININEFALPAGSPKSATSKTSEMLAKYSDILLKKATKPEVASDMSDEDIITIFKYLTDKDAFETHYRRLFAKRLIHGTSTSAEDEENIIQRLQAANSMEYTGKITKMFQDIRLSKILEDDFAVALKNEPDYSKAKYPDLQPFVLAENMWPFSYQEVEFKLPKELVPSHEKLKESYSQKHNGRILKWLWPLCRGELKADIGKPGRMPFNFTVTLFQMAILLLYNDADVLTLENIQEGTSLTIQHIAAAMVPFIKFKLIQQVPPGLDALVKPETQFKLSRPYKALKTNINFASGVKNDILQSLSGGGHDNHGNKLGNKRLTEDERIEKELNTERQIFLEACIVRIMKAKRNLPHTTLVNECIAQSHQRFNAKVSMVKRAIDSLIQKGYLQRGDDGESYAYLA
UniProt P52286, sequence (P07834 whole entry, chain 3 of 4, further chain): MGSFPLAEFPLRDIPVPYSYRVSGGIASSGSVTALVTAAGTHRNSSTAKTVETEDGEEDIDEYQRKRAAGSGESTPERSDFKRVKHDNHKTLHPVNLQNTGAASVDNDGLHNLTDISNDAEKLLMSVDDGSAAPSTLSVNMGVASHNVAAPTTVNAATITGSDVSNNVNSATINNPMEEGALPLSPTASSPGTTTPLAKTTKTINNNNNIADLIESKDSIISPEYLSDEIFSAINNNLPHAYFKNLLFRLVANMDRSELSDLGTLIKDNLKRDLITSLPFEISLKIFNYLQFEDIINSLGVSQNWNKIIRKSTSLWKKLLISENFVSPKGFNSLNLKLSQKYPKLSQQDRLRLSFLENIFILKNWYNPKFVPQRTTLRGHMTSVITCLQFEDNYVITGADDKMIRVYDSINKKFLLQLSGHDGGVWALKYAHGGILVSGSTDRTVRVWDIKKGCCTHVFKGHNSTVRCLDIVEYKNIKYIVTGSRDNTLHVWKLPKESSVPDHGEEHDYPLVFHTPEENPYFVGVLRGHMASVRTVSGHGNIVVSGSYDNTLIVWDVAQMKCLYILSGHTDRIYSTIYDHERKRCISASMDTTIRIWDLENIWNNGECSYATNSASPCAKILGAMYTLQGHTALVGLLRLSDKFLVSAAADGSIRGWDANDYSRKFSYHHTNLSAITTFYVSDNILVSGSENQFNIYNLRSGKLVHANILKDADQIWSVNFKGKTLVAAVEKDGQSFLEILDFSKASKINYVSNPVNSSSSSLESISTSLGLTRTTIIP
UniProt P52286, sequence (Q08273 whole entry, chain 4 of 4, further chain): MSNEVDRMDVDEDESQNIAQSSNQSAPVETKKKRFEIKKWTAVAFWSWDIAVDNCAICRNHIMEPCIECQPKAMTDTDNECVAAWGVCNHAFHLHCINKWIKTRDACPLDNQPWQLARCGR

- fold increase in Km in Sic1 ubiquitylation reactions, against Cdc34-Δ230: 3 fold
B1: yeast Cdc34-Δ220 (domain or fragment)
chain: MSSRKSTASSLLLRQYRELTDPKKAIPSFHIELEDDSNIFTWNIGVMVLNEDSIYHGGFFKAQMRFPEDFPFSPPQFRFTPAIYHPNVYRDGRLCISILHQSGDPMTDEPDAETWSPVQTVESVLISIVSLLEDPNINSPANVDAAVDYRKNPEQYKQRVKMEVERSKQDIPKGFIMPTSESAYISQSKLDEPESNKDMADNFWYDSDLDDDENGSVILQ
